The target in this assay is GST-human NOGO-A56 (human) (UniProt Q9NQC3). The assay is described as follows: SPR (Biacore 3000), GST-human NOGO-A56 on CM5 chip, antibody as analyte; single experiment. A general note: SPR reads the build-up and loss of mass on a sensor chip optically.
GST-human NOGO-A56 (human), sequence (Q9NQC3 586-785): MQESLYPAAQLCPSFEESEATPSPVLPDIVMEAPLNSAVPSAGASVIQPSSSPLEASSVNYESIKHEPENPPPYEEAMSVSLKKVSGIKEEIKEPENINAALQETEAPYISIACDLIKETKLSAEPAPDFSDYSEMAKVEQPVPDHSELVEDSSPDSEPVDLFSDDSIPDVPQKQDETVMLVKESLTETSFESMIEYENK

By Kd is commonly meant the free concentration of one partner at which half of the binding sites on the other are occupied at equilibrium, for simple one-to-one binding. A higher Kd goes with weaker binding. As a reminder, the koff is a measure of how fast the partners let go of each other. In general, kon refers to the second-order rate constant of association. With 11C7 (chimeric version) (antibody), the Kd amounted to 0.057 nM, the koff stood at 8.25e-05 s⁻¹ and the on-rate (kon) stood at 1.44e+06 M⁻¹ s⁻¹.

Source of the values: patent publication US20110054149A1.
